The record followed here is US20200164071A1 (GENSUN BIOPHARMA, published 2020).

Usually IC50 stands for the concentration needed to halve the response being measured. A higher IC50 goes with weaker potency.

Experiment [1] addresses T1, human TIGIT on CHO-K1 cells (human, UniProt Q495A1 23-244).
T1 construct: also called hu TIGIT; TIGIT+CHO-K1 cells
T1 sequence: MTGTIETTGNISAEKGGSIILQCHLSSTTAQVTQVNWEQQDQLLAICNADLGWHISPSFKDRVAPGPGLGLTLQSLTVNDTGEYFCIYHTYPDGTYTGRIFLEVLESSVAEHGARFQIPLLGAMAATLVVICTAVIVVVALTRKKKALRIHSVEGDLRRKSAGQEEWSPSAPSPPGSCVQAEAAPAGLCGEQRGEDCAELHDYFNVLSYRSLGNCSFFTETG
The experiment in a line: flow cytometry competition with biotinylated hPVR-mIg on CHO-K1 cells expressing human TIGIT. How it is done:
The cells were washed 2 times before staining with PE streptavidin (BioLegend) for 20 min at 4 C. The cells were then washed, resuspended in 30 μl 7 AAD solution, and 35 μl of 10% neutral buffered formalin solution was added. The cells were then incubated for 15 min. Flow cytometry was performed and IC50 was calculated using iQue intellicyt system.
(In flow cytometry, cells or beads pass a laser one at a time.)

Experiment [2] deals with T2, human PD-1 on CHO-K1 cells (human, UniProt Q15116 25-288).
T2 construct: also called Human PD-1 transfected CHO-K1 cells
T2 sequence (Q15116 25-288): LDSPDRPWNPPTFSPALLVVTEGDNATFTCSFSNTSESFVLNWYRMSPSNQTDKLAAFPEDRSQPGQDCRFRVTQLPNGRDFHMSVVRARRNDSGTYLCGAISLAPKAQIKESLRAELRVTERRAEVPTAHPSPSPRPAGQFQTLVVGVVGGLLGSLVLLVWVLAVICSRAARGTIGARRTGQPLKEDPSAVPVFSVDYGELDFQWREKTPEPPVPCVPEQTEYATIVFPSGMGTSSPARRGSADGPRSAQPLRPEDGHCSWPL
As to the kind of experiment: flow cytometry blocking assay: FITC human PD-L1-Fc on human PD-1 CHO-K1 cells (Example 11; the legend paragraph 42 calls it binding to hu PD-L1). How it is done: (§1) Human or Cyno PD-1 transfected CHO-K1 cells were washed with FACS buffer (0.5% BSA 2 mM EDTA in PBS) and re-suspended at a concentration of 10⁶ cells/ml. […] The cells were then washed and re-suspended in 30 μl 7 AAD solution; 35 μl 10% neutral buffered formalin solution was then added and incubated for 15 mins. before analysis using the iQue intellicyt system.

Experiment [3] addresses T3, cyno PD-1 on CHO-K1 cells (cyno).
T3 construct: whole, on cells; also called cyno hu PD-1; Cyno PD-1 transfected CHO-K1 cells
As to the kind of experiment: flow cytometry blocking assay of Example 11, PD-L1 on cyno PD-1 CHO-K1 cells; cyno taken from the legend paragraph 42 ('cyno-hu'), while Example 11 speaks of human PD-1 and human PD-L1 for this figure. How it is done: as §1

Experiment [4] deals with T1, human TIGIT on CHO-K1 cells. The experiment in a line: flow cytometry blocking assay: PVR (hPVR-mIg, m14, by Examples 4 and 6) on human TIGIT CHO-K1 cells (Example 16); title: Blocking PVR binding to TIGIT.

Positions count from the first letter of the chain named.

B1: T-02 (antibody, V domains shown)
VH: QVKLQESGPGLVKPSQTLSLTCTVTGYSITSDYAWNWIRQPPGKGLEWIGYITYSGGTSYNPSLKSRVTISVDTSKNQFSLKLSSVTAADTAVYSCARRQIGLGFTYWGQGTLVTVSA
VL: DIQMTQSPSSLSASVGDRVTIPCKASQDLSTAVAWYQQKPGKAPKLLIYSSSYRYTGVPSRFSGSGSGTDFTLTISSLQPEDFATYYCQQSYSTPQQHYSTPWTFGEGTKLEIK
notes: Anti-human TIGIT monoclonal antibody from mouse hybridoma; also called anti-hu TIGIT mab T-02
With B1, the IC50 in experiment [1] lay in the range of 0.35 to 0.71 nM.

B2: PD-06 (antibody, V domains shown)
VH: QVQLVQSGAEVKKPGASVKVSCKASGYTFTSYYIHWVRQAPGQRLEWMGWIFPGSGNSKYNENFKGRVTITRDTSASTAYMELSSLRSEDTAVYFCASETYDYGDYWGQGTLVTVSS
VL: DIQMTQSPSSLSASVGDRVTITCKASQNVGTNVAWYQQKPGKAPKSLIYSASYRYSGVPSRFSGSGSGTDFTLTISSLQPEDFATYFCQQYYSYPYTFGQGTKLEIK
notes: also called anti-PD-1 mab PD-06
As to B2, the IC50 in experiment [2] was 0.65 nM; in experiment [3] it was 2.14 nM.

B3: PD-04 (antibody, V domains shown)
VH: QVQLVQSGAEVKKPGASVKVSCKASDYTFTNSYIYWVRQAPGQGLEWMGGINPSNGGTNFNEKFKTRVTSTRDTSISTAYMELSRLRSDDTVVYYCARRDYNYDGGFDSWGQGTLVTVSS
VL: DIQMTQSPSSLSASVGDRVTFTCRASSSLYSNYLHWYQQKPGKAPKLLIYRASFLASGVPSRFSGSGSGTDFTLTISSLQPEDFATYYCQQGSSIPLTFGGGTKVEIK
notes: also called anti-PD-1 mab PD-04
B3: the 50% inhibitory concentration (IC50) in experiment [2] stood at 0.82 nM; in experiment [3] it was 2.15 nM.

B4: T-09 (antibody, V domains shown)
VH: QVTLKESGPTLVKPTQTLTLTCTFSGFSLSTFAMGVGWIRQPPGKALEWLAHIWWDDDKYYNPALKSRLTITKDTSKNQVVLTMTNMDPVDTATYYCARMDYSYFAWFAYWGQGTLVTVSS
VL: QAVVTQEPSLTVSPGGTVTLTCRSSTGAVTTSNYANWVQQKPGQLFRGLIGGTNNRAPWVPARFSGSLIGDKAALTLSGVQPEDEAEYFCALWYSNHWVFGGGTKLTVL
notes: Anti-human TIGIT monoclonal antibody from mouse hybridoma; also called anti-hu TIGIT mab T-09
In turn, B4 came in with an IC50 in experiment [1] of 0.36 to 0.42 nM.

B5: TP-M10T8P5 (TP-92) (bispecific antibody, human IgG4 S228P)
heavy: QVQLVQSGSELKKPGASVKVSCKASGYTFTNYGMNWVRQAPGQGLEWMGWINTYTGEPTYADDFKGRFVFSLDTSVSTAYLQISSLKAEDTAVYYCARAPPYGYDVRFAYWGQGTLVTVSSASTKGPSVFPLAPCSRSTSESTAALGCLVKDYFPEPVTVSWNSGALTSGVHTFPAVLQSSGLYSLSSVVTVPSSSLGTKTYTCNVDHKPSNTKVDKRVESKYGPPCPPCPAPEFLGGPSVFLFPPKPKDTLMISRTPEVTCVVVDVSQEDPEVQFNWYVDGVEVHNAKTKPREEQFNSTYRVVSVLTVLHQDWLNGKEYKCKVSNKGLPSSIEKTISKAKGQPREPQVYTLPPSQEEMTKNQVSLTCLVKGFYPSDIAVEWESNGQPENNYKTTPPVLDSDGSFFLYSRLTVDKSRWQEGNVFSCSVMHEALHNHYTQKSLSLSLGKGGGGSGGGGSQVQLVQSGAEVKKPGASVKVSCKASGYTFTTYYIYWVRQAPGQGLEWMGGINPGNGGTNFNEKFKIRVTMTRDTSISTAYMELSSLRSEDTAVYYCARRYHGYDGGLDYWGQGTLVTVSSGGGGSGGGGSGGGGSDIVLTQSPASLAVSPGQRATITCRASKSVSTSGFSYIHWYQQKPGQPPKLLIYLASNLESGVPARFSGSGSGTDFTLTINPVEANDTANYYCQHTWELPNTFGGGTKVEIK
light: DVVMTQSPLSLPVTLGQPASISCRSSQSIVHSNGNTYLEWFQQRPGQSPRVLIYKVSDRFSGVPDRFSGSGSGTDFTLKISRVEAEDVGVYYCFQGSHVPWTFGRGTKLEIK
notes: Anti-TIGIT x anti-PD-1; The tie is in embodiment wording ('about 80% to about 100% homologous to')
B5 had an IC50 in experiment [4] of 0.4 nM.

B6: T-05 (antibody, V domains shown)
VH: EVQLKQSGAEVKKPGATVKISCKVSGYTFTDQAIHWVQQAPGKGLEWMGYIYPRDGSTKYNETFKGRVTITADTSTDTAYMELSSLRSEDTAVYFCARGMLRWFAYWGQGTLVTVSS
VL: DIQMTQSPSSLSASVGDRVTITCKASQDVSTAVAWYQQKPGKAPKLLIYSASYRYTGVPSRFSGSGSGTDFTLTISSLQPEDFATYYCQQHYSTPLTFGAGTKLELK
notes: Anti-human TIGIT monoclonal antibody from mouse hybridoma; also called anti-hu TIGIT mab T-05
As to B6, the IC50 in experiment [1] fell in the range of 0.2 to 0.46 nM.

B7: T-06 (antibody, V domains shown)
VH: B1 VH with K3Q, T25S, Y27G, I29V, T30S, G57S, S95Y, I101V, T106A
VL: B6 VL with R54H, L96W, A100G, L106I
notes: Anti-human TIGIT monoclonal antibody from mouse hybridoma; also called anti-hu TIGIT mab T-06
Consider B7, for which the IC50 in experiment [1] is 0.84 nM.

B8: T-07 (antibody, V domains shown)
VH: EVQLQESGPGLVKPSDTLSLTCAVSGYSITSDSAWNWIRQPPGKGLEWIGYITYSGSTNYNPSLRSRVTMSVDTSKNQFSLKLSSVTAVDTAVYYCTRRQVGLGFAYWGQGTLVTVSA
VL: B6 VL with Y55F, V58A, A84G, T85I, Q90H, L96W, A100G, L106F
notes: Anti-human TIGIT monoclonal antibody from mouse hybridoma; also called anti-hu TIGIT mab T-07
For B8, the IC50 in experiment [1] worked out at 0.5 nM.

B9: T-03 (antibody, V domains shown)
VH: B6 VH with K5V, Q32H, A33T, I51F, T63K, F95Y, R98T, Y106D, V113I, S117V
VL: B6 VL with A32T
notes: Anti-human TIGIT monoclonal antibody from mouse hybridoma; also called anti-hu TIGIT mab T-03
B9 came in with an IC50 in experiment [1] of 0.26 to 0.52 nM.
